Literature values in PMC4696766.
Like-named read-outs stand apart in the source and are kept apart here. Blank lines part the entries; values can stand above or below the substance they belong to.

Legend:
[1] = target: Histone H3 (Homo sapiens) (UniProt P68431)
[2] = target: Histone H3 (Homo sapiens) (UniProt P68431); remark: listed apart in the source
[3] = target: histone H4 H4K20me2 peptide (UniProt P62805)
[4] = target: Histone H4 (Homo sapiens) (UniProt P62805)
[5] = target: histone H3 H3K9me3 peptide (UniProt P61830)
[6] = target: Histone H3 (Homo sapiens) (UniProt P68431); remark: listed apart in the source
histone H3 1-10 = histone H3 1-10 (UniProt P61830)
[7] = target: histone H3 H3K4me2 peptide (UniProt P61830)
[8] = target: histone H3 H3K4me3 peptide (UniProt P61830)
[9] = target: Histone H3 (Homo sapiens) (UniProt P68431); remark: listed apart in the source
[10] = target: histone H3 H3K4me3 peptide (UniProt P61830); remark: listed apart in the source
[11] = target: Histone H3 (Homo sapiens) (UniProt P68431); remark: listed apart in the source
[12] = target: histone H3 H3K9me2 peptide (UniProt P61830)
[13] = target: Histone H3 (Arabidopsis thaliana) (UniProt P59226)
[14] = target: Histone H3 (Drosophila melanogaster) (UniProt P02299)
[15] = target: histone H3 H3K9me3 peptide (UniProt P61830); remark: listed apart in the source
[16] = target: histone H3 H3K4me3 peptide (UniProt P61830); remark: listed apart in the source
[17] = target: histone H4 H4K20me3 peptide (UniProt P62805)
di-γH2A.X (Homo sapiens) = di-γH2A.X (Homo sapiens) (UniProt P16104)
γH2A.X (Homo sapiens) = γH2A.X (Homo sapiens) (UniProt P16104)
[18] = target: Histone H4 (Homo sapiens) (UniProt P62805); assay: NMR
[19] = target: histone H3 H3K9me2 peptide (UniProt P61830); remark: listed apart in the source
[20] = target: Histone H3 (Arabidopsis thaliana) (UniProt P59226); remark: listed apart in the source
PIWI (Homo sapiens) = PIWI (Homo sapiens) (UniProt Q96J94)
[21] = target: Histone H3 (Homo sapiens) (UniProt P68431); remark: listed apart in the source
[22] = target: Histone H3 (Homo sapiens) (UniProt P68431); remark: listed apart in the source
[23] = target: Histone H3 (Homo sapiens) (UniProt P68431); remark: listed apart in the source
[24] = target: Histone H3 (Homo sapiens) (UniProt P68431); remark: listed apart in the source

Chain of HP1 chromodomain (P05205 24-82): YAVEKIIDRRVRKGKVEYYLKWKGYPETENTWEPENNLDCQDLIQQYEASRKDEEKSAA
Chain of 14-3-3ζ (P63104 whole entry): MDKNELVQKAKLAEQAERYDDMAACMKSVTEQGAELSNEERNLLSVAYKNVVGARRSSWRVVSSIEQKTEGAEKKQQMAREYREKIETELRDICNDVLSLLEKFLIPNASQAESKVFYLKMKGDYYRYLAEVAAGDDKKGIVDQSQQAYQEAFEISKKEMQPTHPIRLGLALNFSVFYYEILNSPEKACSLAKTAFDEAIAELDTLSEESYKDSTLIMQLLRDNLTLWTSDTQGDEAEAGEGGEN
Chain of G9a ankyrin repeats (Q96KQ7 649-879): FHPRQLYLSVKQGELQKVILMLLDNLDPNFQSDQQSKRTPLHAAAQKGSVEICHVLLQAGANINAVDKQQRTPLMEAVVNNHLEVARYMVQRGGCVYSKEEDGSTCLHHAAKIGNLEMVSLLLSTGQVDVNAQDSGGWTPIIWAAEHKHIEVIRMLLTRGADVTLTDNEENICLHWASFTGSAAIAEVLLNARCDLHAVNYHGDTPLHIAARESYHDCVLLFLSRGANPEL
Chain of BHC80 PHD finger (Q96BD5 whole entry): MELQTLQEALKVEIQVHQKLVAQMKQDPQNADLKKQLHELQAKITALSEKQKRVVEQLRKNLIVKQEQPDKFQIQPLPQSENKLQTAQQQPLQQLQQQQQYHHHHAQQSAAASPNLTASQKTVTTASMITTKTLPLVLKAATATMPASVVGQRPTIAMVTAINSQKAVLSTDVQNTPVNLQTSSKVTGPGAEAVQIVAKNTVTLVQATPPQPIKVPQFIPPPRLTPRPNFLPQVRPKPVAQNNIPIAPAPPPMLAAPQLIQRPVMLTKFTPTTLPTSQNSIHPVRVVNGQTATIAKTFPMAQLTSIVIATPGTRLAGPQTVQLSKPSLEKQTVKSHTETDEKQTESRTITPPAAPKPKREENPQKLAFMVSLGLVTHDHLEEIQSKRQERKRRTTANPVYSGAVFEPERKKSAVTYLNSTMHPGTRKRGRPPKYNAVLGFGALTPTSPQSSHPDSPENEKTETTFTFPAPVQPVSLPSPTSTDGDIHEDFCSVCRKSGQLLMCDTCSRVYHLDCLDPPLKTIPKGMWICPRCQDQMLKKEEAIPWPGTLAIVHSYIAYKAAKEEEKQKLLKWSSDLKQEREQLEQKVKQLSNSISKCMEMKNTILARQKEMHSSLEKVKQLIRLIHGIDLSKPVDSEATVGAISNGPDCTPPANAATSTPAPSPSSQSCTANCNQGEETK
Chain of UHRF1 PHD finger (Q96T88 310-366): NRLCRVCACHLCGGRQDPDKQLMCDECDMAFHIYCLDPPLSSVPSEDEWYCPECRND
Chain of MCPH1 tandem BRCT domains (Q8NEM0 640-833): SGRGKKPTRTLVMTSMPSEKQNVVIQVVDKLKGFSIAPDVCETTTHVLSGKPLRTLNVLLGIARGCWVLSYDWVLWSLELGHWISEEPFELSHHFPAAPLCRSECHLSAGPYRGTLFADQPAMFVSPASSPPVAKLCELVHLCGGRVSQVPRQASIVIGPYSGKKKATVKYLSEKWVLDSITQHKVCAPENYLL
Chain of CHD1 tandem chromodomains (O14646 272-452): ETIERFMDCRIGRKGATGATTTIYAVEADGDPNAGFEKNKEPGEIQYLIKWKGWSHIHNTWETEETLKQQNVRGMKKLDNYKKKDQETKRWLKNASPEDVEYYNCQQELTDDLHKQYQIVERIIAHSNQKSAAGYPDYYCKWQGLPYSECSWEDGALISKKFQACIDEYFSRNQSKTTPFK
Chain of JMJD2A tandem Tudor (O75164 897-1011): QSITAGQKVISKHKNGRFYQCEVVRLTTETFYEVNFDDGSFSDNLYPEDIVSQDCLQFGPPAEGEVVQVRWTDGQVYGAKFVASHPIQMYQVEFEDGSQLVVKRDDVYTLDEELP
Chain of DPF3 tandem PHD fingers (Q92784 259-366): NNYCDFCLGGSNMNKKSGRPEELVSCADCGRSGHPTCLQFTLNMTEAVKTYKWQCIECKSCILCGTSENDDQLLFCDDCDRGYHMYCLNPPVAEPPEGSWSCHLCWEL
Chain of P/CAF bromodomain (Q92831 720-830): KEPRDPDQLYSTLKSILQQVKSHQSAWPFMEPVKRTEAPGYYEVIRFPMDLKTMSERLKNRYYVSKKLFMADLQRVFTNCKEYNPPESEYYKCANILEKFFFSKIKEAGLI
Chain of UHRF1 tandem Tudor-PHD cassette (Q96T88 133-366): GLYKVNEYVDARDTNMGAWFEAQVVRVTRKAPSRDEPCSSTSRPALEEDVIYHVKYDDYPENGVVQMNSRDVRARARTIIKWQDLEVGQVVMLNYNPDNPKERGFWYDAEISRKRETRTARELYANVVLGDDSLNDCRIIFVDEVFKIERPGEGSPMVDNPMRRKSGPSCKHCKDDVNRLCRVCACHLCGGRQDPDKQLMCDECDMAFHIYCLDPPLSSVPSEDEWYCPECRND
Chain of SHH1 tandem Tudor (Q9XI47 138-244): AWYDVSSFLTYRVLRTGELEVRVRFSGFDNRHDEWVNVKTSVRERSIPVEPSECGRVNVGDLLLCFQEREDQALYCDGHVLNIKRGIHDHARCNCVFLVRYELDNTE
Chain of SHH1 tandem Tudor domains (Q9XI47 138-244): as above
Chain of SND1 extended Tudor domain (Q7KZF4 650-910): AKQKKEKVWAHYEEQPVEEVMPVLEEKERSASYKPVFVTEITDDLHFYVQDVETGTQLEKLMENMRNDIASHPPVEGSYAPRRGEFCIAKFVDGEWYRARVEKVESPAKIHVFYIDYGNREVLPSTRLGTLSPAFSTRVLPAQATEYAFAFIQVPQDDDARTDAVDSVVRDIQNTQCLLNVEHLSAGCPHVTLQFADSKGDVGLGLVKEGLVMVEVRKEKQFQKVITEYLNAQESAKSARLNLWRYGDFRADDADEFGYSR
Chain of UHRF1 tandem Tudor domain (Q96T88 133-283): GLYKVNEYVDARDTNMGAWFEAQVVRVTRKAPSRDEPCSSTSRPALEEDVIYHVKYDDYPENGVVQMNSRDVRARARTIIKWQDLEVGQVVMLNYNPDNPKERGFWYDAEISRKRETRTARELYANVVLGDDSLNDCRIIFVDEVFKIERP
Chain of 53BP1 tandem Tudor domains (Q12888 1484-1603): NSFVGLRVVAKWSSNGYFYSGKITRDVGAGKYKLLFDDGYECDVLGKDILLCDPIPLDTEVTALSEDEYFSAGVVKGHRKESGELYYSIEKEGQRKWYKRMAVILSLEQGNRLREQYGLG
Chain of 53BP1 tandem Tudor (Q12888 1484-1603): as above

Substance: 14-3-3ζ (from UniProt P63104)
Kd [1]: 78 µM | Kd [2]: 23 µM

Substance: 53BP1 tandem Tudor (from UniProt Q12888)
Kd [3]: 19.7 µM

Substance: 53BP1 tandem Tudor domains (from UniProt Q12888)
Kd [4]: 19.7 µM

Substance: ATRX ADD (from UniProt P46100)
Kd [5]: 0.5 µM

Substance: BHC80 PHD finger (from UniProt Q96BD5)
Kd [6]: 30 µM | Kd (histone H3 1-10): 30 µM

Substance: BPTF PHD finger (from UniProt Q12830)
Kd [7]: 5 µM | Kd [8]: 2.7 µM

Substance: DPF3 tandem PHD fingers (from UniProt Q92784)
Kd [11]: 0.5 µM

Substance: HP1 chromodomain (from UniProt P05205)
Kd [14]: 2.5 µM | Kd [15]: 2.5 µM

Substance: JMJD2A tandem Tudor (from UniProt O75164)
Kd [16]: 0.5 µM | Kd [17]: 0.4 µM

Substance: P/CAF bromodomain (from UniProt Q92831)
Kd [18]: 346 µM

Substance: SND1 extended Tudor domain (from UniProt Q7KZF4)
Kd (PIWI (Homo sapiens)): 10 µM

Substance: UHRF1 PHD finger (from UniProt Q96T88)
Kd [21]: 1.47 µM | Kd [22]: 2.1 µM

Substance: UHRF1 tandem Tudor-PHD cassette (from UniProt Q96T88)
Kd [24]: 0.37 µM

More lines, now with the values ahead:

Kd [9]: 5 µM | Kd [10]: 5 µM
Substance: CHD1 tandem chromodomains (from UniProt O14646)

Kd [12]: 6 µM | Kd [13]: 6 µM
Substance: G9a ankyrin repeats (from UniProt Q96KQ7)

Kd (di-γH2A.X (Homo sapiens)): 4.4 µM | Kd (γH2A.X (Homo sapiens)): 0.7 µM
Substance: MCPH1 tandem BRCT domains (from UniProt Q8NEM0)

Kd [19]: 1.9 µM
Substance: SHH1 tandem Tudor (from UniProt Q9XI47)

Kd [20]: 1.9 µM
Substance: SHH1 tandem Tudor domains (from UniProt Q9XI47)

Kd [23]: 1.75 µM
Substance: UHRF1 tandem Tudor domain (from UniProt Q96T88)
